US20030175703, “RNA aptamers and methods for identifying the same” (published 2003)
Where a chain is given by its changes, count along the chain named.

B1: 9.19 (ssRNA)
RNA: GGGAGAGAGGAAGAGGGAUGGGACCAUAACGACUACUCGUGAAUCCCACCAUCAGCGCACAACAUAACCCAGAGGUCGAUAGUACUGGAUCCCCCC
modifications: 2'-F pyrimidines
B2: 9.25 (ssRNA)
RNA: GGGAGAGAGGAAGAGGGAUGGGGACCAUAACUCUAACGGGUGAAUCCCGCAUCUCGACAAUACAUAACCCAGAGGUCGAUAGUACUGGAUCCCC
modifications: 2'-F pyrimidines
B3: 9.28 (ssRNA)
RNA: GGGAGAGAGGAAGAGGGAUGGGCGCCAUACGCACAUUGCUGCAUCGCCUUCCCGUAAGAACCAUAACCCAGAGGUCGAUAGUACUGGAUCCCCCC
modifications: 2'-F pyrimidines
B4: 9.27 (ssRNA)
RNA: GGGAGAGAGGAAGAGGGAUGGGUAAUAACUGUAUGGUGAACCCACCCAAACUCCCAUGGCUACAUAACCCAGAGGUCGAUAGUACUGGAUCCCCCC
modifications: 2'-F pyrimidines
B5: 9.20 (ssRNA)
RNA: GGGAGAGAGGAAGAGGGAUGGGGACUAUACCGGCAAUCGUGCAUCCCCUGGACCUAACAAUACAUAACCCAGAGGUCGAUAGUACUGGAUCCCCCC
modifications: 2'-F pyrimidines
B6: 9.26 (ssRNA)
RNA: GGGAGAGAGGAAGAGGGAUGGGUGAUAACCACUCUGGUGAACCCCUCCCGACUUGCUCGCACAUAACCCAGAGGUCGAUAGUACUGGAUCCCCCC
modifications: 2'-F pyrimidines
B7: Ang2 aptamer 11-3 (ssRNA)
RNA: GGGAGGACGAUGCGGUUAACCAUCAGCUCAUGGCCCCUGCCCUCUCAAGGACCACCAGACGACUCGCUGAGGAUCCGAGA
modifications: 2'-F
B8: TOG 25 short loop U2 (ssRNA)
RNA: GGGAACAAAGCUGAAGAACUUACCC
B9: TOG 25 short (TOGGLE-25t) (ssRNA)
RNA: GGGAACAAAGCUGAAGUACUUACCC
B10: TOG 25 short no stem (ssRNA)
RNA: GGGAACAAAGCUGAAGUACUUAGGG
B11: TOG 25 short loop U1 (ssRNA)
RNA: GGGAACAAAGCAGAAGUACUUACCC
B12: E10-8 (ssRNA)
RNA: GGGAGAGAGGAAGAGGGAUGGGCCAAAAGCGGACUGAAGACGUGUUUCCCCCAUCUCCGUGACAUAACCCAGAGGUCGAU
B13: E9-3 (ssRNA)
RNA: GGGAGAGAGGAAGAGGGAUGGGCCAAAAGCGCAUACACCUGCGUGUUUCCCCCGCCAACAGUCAUAACCCAGAGGUCGAU
B14: F11-6 (ssRNA)
RNA: GGGAGAGAGGAAGAGGGAUGGGCCAGCAACGUCACACGAACGGAAUACCCCCCAUUGAAAACCAUAACCCAGAGGUCGAU
B15: E10-11 (ssRNA)
RNA: GGGAGAGAGGAAGAGGGAUGGGCCAGAAGCGCUCACUACAACGUUGAACCCCCCGUCCACACCAUAACCCAGAGGUCGAU
B16: E9-9 (ssRNA)
RNA: GGGAGAGAGGAAGAGGGAUGGGCCAGAACACCAGUGAACCCCCCAGCCCCUUCUCACCAGAUCAUAACCCAGAGGUCGAU
B17: F11-10 (ssRNA)
RNA: GGGAGAGAGGAAGAGGGAUGGGCUCGGCAGAAGACACGCAUUCACCUGGUGCCACCUCGUAACAUAACCCAGAGGUCGAU
B18: E10-6 (ssRNA)
RNA: GGGAGAGAGGAAGAGGGAUGGGGCCGUCGCCAGGAAUCAAACUGCUACUCCAUCCCGGGCACAUAACCCAGAGGUCGAU
B19: E9-2 (ssRNA)
RNA: GGGAGAGAGGAAGAGGGAUGGGAUACCGAGCACGCAAAACACACAAUGCCCAAGCAGGACUCAUAACCCAGAGGUCGAU
B20: E10-4 (ssRNA)
RNA: GGGAGAGAGGAAGAGGGAUGGGUCUUAGAUAUAGAACUCCGAGAGGACUGACCGUACAGAACCAUAACCCAGAGGUCGAU
B21: D4-7 (ssRNA)
RNA: GGGAGAGAGGAAGAGGGAUGGGAUAAUAGCCCCAGCGAGAUAAUACUUGGCCCCGCUACUAACAUAACCCAGAGGUCGAU
B22: D4-3 (ssRNA)
RNA: B21 RNA with A23U, U24A, U57A, A62C
B23: D6-7 (ssRNA)
RNA: B21 RNA with A23U, U24G, A25C, U60A, A62C
B24: D6-10 (ssRNA)
RNA: B21 RNA with A23C, U24A, A25G, C32A, A42C, A62C
B25: D4-5 (ssRNA)
RNA: B21 RNA with U24G, A45C, A61G, A62C
B26: D7-6 (ssRNA)
RNA: B21 RNA with U24A, C59G, U60C, A62C
B27: D6-9 (ssRNA)
RNA: B21 RNA with U24A, A26U, A28U, U57A, A62C
B28: D7-1 (ssRNA)
RNA: B21 RNA with U24G, A28G, A42U, U57C, C59A, A62C
B29: D6-3 (ssRNA)
RNA: B21 RNA with U24A, A58G, C59U, A62C
B30: D7-9 (ssRNA)
RNA: B21 RNA with A23U, U24A, A42U, A43C, A62C
B31: D4-2 (ssRNA)
RNA: B21 RNA with U24A, A25C, A26U, C32U, U44C, A45G, C59A, U60G, A62C
B32: D7-2 (ssRNA)
RNA: B21 RNA with U24G, C59A, A62C
B33: F11-8 (ssRNA)
RNA: B21 RNA with U24G, A26U, A62C
B34: D4-9 (ssRNA)
RNA: B21 RNA with A23U, U24A, A26G, A28U, A43G
B35: D8-1 (ssRNA)
RNA: B21 RNA with U24A, A42G, C59A, A62C
B36: D7-5 (ssRNA)
RNA: B21 RNA with U24A, A26C, C32U, A62C
B37: D6-2 (ssRNA)
RNA: B21 RNA with U24A, U60A, A62C
B38: F11-7 (ssRNA)
RNA: B21 RNA with U24A, C59U, A62C
B39: E10-12 (ssRNA)
RNA: B21 RNA with U24A, U57G, C59A, U60C, A62C
B40: D7-4 (ssRNA)
RNA: B21 RNA with U24G, A42C, A43G, C59G, A62C
B41: E9-10 (ssRNA)
RNA: GGGAGAGAGGAAGAGGGAUGGGCCAGAACCAACUGCGGUGAACCCCCCAUACCGCGACACAUCAUAACCCAGAGGUCGAU
B42: E9-4 (ssRNA)
RNA: GGGAGAGAGGAAGAGGGAUGGGAGCCCGAGAAAAUAACGCGUUCCACCAUACUACUAAGCCAUAACCCAGAGGUCGAU
B43: E9-6 (ssRNA)
RNA: GGGAGAGAGGAAGAGGGAUGGGCCAGAAGCUAAACACUCAUAACCACGCUGAACCCCCCAACCAUAACCCAGAGGUCGAU
B44: E9-8 (ssRNA)
RNA: GGGAGAGAGGAAGAGGGAUGGGCCAGAAGGAACUAAACACCUGAACCCCCCAUCGCGAGAGACAUAACCCAGAGGUCGAU
B45: 11.F7t (ssRNA)
RNA: GAGAGCCCCAGCGAGAUAAUACUUGGCCCCGCUCUU
B46: D6-4 (ssRNA)
RNA: GGGAGAGAGGAAGAGGGAUGGGAAAUUUGCCCUAGCGAGAUUAUACUUGGCCCCGCGAAAAACCAUAACCCAGAGGUCGAU
B47: D7-7 (ssRNA)
RNA: GGGAGAGAGGAAGAGGGAUGGGAGAAUACGCCUAGCGAGAAGAUACUUGGCCCCCGUGCAACCAUAACCCAGAGGUCGAU
B48: E9-5 (ssRNA)
RNA: GGGAGAGAGGAAGAGGGAUGGGCCAGAAGCGACACUAACGCUGAACCCCCCAGUCCCUUCACGUGCAUAACCCAGAGGUCGAU

Target: coagulation factor IXa (FIXa) (UniProt P00740;P00740 P00740:47-191,P00740:227-461)
Sequence (P00740 47-191, chain 1 of 2): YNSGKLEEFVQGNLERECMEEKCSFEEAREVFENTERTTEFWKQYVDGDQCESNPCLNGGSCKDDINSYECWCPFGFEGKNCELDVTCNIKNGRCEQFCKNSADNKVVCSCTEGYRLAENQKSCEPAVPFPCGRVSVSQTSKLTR
Sequence (P00740 227-461, chain 2 of 2): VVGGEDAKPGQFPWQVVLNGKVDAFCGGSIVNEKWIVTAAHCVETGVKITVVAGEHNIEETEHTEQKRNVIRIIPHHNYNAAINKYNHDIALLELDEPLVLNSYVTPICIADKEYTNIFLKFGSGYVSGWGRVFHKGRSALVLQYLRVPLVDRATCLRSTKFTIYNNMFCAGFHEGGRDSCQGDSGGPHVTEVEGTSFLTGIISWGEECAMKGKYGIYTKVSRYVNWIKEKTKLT
Assay: filter; double-filter nitrocellulose

Binder	Kd
B1	0.707 nM
B2	0.49 nM
B3	0.592 nM
B4	1.64 nM
B5	0.49 nM
B6	0.49 nM

Target: angiopoietin-2 (Ang2) (UniProt O15123 O15123:19-496)
Sequence (O15123 19-496, one chain of several): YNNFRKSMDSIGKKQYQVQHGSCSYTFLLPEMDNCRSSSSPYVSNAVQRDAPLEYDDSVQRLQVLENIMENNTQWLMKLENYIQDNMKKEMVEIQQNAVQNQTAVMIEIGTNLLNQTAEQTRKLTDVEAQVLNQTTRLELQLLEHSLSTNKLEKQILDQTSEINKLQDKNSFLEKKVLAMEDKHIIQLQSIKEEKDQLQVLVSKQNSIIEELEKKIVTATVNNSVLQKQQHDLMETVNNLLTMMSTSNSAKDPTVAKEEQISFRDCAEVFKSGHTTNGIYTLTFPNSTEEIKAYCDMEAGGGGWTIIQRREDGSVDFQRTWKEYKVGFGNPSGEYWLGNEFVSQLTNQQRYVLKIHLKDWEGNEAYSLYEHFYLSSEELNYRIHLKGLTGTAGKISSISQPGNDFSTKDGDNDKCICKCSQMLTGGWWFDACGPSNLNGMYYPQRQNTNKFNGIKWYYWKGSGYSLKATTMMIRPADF
Assay: not given

Binder	Kd
B7	~10 nM

Target: thrombin (F2) (human, UniProt P00734;P00734 P00734:328-363,P00734:364-622)
Assay: not given

Binder	Kd
B8	~1 nM
B9	~1 nM
B10	~1000 nM
B11	~250 nM

Target: coagulation factor Xa (FXa) (UniProt P00742;P00742 P00742:41-179,P00742:235-488)
Sequence (P00742 41-179, chain 1 of 2): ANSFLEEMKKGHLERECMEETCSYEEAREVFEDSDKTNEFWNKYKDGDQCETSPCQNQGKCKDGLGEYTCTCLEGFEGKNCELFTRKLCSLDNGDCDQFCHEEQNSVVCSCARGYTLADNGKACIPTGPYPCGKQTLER
Sequence (P00742 235-488, chain 2 of 2): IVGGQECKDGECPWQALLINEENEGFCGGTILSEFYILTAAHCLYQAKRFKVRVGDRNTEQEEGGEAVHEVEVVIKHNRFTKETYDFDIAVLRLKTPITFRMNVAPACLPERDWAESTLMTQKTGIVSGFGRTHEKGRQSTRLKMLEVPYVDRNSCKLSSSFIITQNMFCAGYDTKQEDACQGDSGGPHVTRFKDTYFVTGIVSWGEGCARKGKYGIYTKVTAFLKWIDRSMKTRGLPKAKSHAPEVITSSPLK
Assay: not given

Binder	Kd	binding result
B12	28.4 nM	–
B13	46.5 nM	–
B14	33.6 nM	–
B15	27.1 nM	–
B16	52.8 nM	–
B17	84.4 nM	–
B18	85.7 nM	–
B19	58.6 nM	–
B20	37.4 nM	–
B21	–	binds
B22	65.5 nM	–
B23	13.2 nM	–
B24	18.7 nM	–
B25	21.7 nM	–
B26	3.8 nM	–
B27	6.5 nM	–
B28	4.7 nM	–
B29	5.9 nM	–
B30	2.63 nM	–

Binder	Kd	binding result
B31	540 nM	–
B32	8.1 nM	–
B33	2.2 nM	–
B34	> 240 nM	–
B35	4.8 nM	–
B36	26.1 nM	–
B37	4.6 nM	–
B38	3.6 nM	–
B39	11.7 nM	–
B40	39.3 nM	–
B41	130 nM	–
B42	65 nM	–
B43	95.1 nM	–
B44	29.8 nM	–
B45	~1.5 nM	–
B46	8.5 nM	–
B47	5.8 nM	–
B48	53.5 nM	–
